Measurements as given in publication PMC8012802.
One block for each substance: values may come before it.

Assays:
Assay in all cases: SEC-MALS; MiniDAWN TREOS II with Superdex 200 10/300 increase, 20 mM Tris-HCl pH 8.0, 100 mM NaCl, 0.5 ml/min; monomer and 6-mer peaks
[1] = biological target: OrfG C-terminal subdomain (OrfG_(223–331): from Ala223 to Asp331) (Streptococcus thermophilus (ICESt3))
[2] = biological target: OrfG central domain (OrfG_(64–204): from Ser64 to Ala204) (Streptococcus thermophilus (ICESt3))
[3] = biological target: OrfG soluble domain (OrfG_(64–331): from Ser64 to Asp331) (Streptococcus thermophilus (ICESt3))

stoichiometry N [1]: 6
Substance: OrfG C-terminal subdomain (OrfG_(223–331): from Ala223 to Asp331) (domain or fragment)

stoichiometry N [2]: 6
Substance: OrfG central domain (OrfG_(64–204): from Ser64 to Ala204) (domain or fragment)

mass fraction of the 6-mer peak [3]: 2.7%
stoichiometry N [3]: 6
Substance: OrfG soluble domain (OrfG_(64–331): from Ser64 to Asp331) (domain or fragment)
